This data set has as its target SARS-CoV-2 nucleocapsid C-terminal domain (N-CTD) (SARS-CoV-2, UniProt P0DTC9 247-364). Kind of data set: fluorescence intensity.

For the molecule UCUCUAAACG (ssRNA) [FAM-labelled 10-mer TRS RNA probe], the binding result is listed as “binds”.

(Values after publication doi:10.1101/2024.10.11.617762.)
